Measured values taken from patent US5821104.

Biological target: Phe-Pro-Ala-pNA

“Aspergillus niger tripeptidyl aminopeptidase (TPAP) (enzyme)” was tested, and the specific activity (release of pNA in the TPAP assay) was 27 µmol/min/mg.
